± gives the standard deviation of the averaged measurements.
Assay: total protein half-life in vivo (active degradation + dilution); higher = more stable protein
[1] = E. coli NCM3722 delta-clpP, growth: N-lim chemostat, doubling time 6 h
[2] = E. coli NCM3722 delta-lon, growth: N-lim chemostat, doubling time 6 h
[3] = E. coli NCM3722 delta-smpB, growth: N-lim chemostat, doubling time 6 h
[4] = wild type E. coli NCM3722, growth: C-lim chemostat, doubling time 3 h
[5] = wild type E. coli NCM3722, growth: C-lim chemostat, doubling time 6 h
[6] = wild type E. coli NCM3722, growth: C-lim chemostat, doubling time 12 h
[7] = wild type E. coli NCM3722, growth: N-lim chemostat, doubling time 6 h
[8] = wild type E. coli NCM3722, growth: N-lim chemostat, doubling time 12 h
[9] = wild type E. coli NCM3722, growth: P-lim chemostat, doubling time 6 h
[10] = wild type E. coli NCM3722, growth: P-lim chemostat, doubling time 12 h
[11] = E. coli NCM3722 delta-hslV, growth: N-lim chemostat, doubling time 6 h
[12] = E. coli NCM3722 delta-clpP delta-lon delta-hslV, growth: N-lim chemostat, doubling time 6 h

Sequence | total protein half-life in vivo [1] [h] | total protein half-life in vivo [2] [h] | total protein half-life in vivo [3] [h] | total protein half-life in vivo [4] [h] | total protein half-life in vivo [5] [h] | total protein half-life in vivo [6] [h] | total protein half-life in vivo [7] [h] | total protein half-life in vivo [8] [h] | total protein half-life in vivo [9] [h] | total protein half-life in vivo [10] [h] | total protein half-life in vivo [11] [h] | total protein half-life in vivo [12] [h]
MDRFPRSDSIVQPRAGLQTYMAQVYGWMTVGLLLTAFVAWYAANSAAVMELLFTNRVFLIGLIIAQLALVIVLSAMIQKLSAGVTTMLFMLYSALTGLTLSSIFIVYTAASIASTFVVTAGMFGAMSLYGYTTKRDLSGFGNMLFMALIGIVLASLVNFWLKSEALMWAVTYIGVIVFVGLTAYDTQKLKNMGEQIDTRDTSNLRKYSILGALTLYLDFINLFLMLLRIFGNRR [P0AAC4] | 3.08 | 2.51 | 2.75 | 2.15 ± 0.5 | 2.98 | 6.02 | 3.09 | 5.33 | 3.85 ± 0.28 | 6.88 ± 0.24 |  | 
MDRIIEKLDHGWWVVSHEQKLWLPKGELPYGEAANFDLVGQRALQIGEWQGEPVWLVQQQRRHDMGSVRQVIDLDVGLFQLAGRGVQLAEFYRSHKYCGYCGHEMYPSKTEWAMLCSHCRERYYPQIAPCIIVAIRRDDSILLAQHTRHRNGVHTVLAGFVEVGETLEQAVAREVMEESGIKVKNLRYVTSQPWPFPQSLMTAFMAEYDSGDIVIDPKELLEANWYRYDDLPLLPPPGTVARRLIEDTVAMCRAEYE | 5.5 ± 1.5 | 4.5929 ± 0.0003 | 4.57 ± 0.72 | 3.06 ± 1.1 | 5.09 ± 0.28 | 11.1 ± 0.68 | 4.5 ± 0.24 | 6.936 ± 0.055 | 5.97 ± 0.23 | 11.17 ± 0.051 | 5.52 ± 2 | 
MDRRRFIKGSMAMAAVCGTSGIASLFSQAAFAADSDIADGQTQRFDFSILQSMAHDLAQTAWRGAPRPLPDTLATMTPQAYNSIQYDAEKSLWHNVENRQLDAQFFHMGMGFRRRVRMFSVDPATHLAREIHFRPELFKYNDAGVDTKQLEGQSDLGFAGFRVFKAPELARRDVVSFLGASYFRAVDDTYQYGLSARGLAIDTYTDSKEEFPDFTAFWFDTVKPGATTFTVYALLDSASITGAYKFTIHCEKSQVIMDVENHLYARKDIKQLGIAPMTSMFSCGTNERRMCDTIHPQIHDSDRLSMWRGNGEWICRPLNNPQKLQFNAYTDNNPKGFGLLQLDRDFSHYQDIMGWYNKRPSLWVEPRNKWGKGTIGLMEIPTTGETLDNIVCFWQPEKAVKAGDEFAFQYRLYWSAQPPVHCPLARVMATRTGMGGFSEGWAPGEHYPEKWARRFAVDFVGGDLKAAAPKGIEPVITLSSGEAKQIEILYIEPIDGYRIQFDWYPTSDSTDPVDMRMYLRCQGDAISETWLYQYFPPAPDKRQYVDDRVMS | 6.09 ± 0.27 | 5.99 ± 0.14 | 5.86 ± 0.28 | 3.22 ± 0.084 | 6.205 ± 0.046 | 12.5 ± 1.2 | 6.44 ± 0.42 | 12.6 ± 0.7 | 6.71 ± 0.95 | 12.628 ± 0.0049 | 5.73 ± 0.087 | 6.6 ± 0.085
MDSARALIARGWGVSLVSRCLRVSRAQLHVILRRTDDWMDGRRSRHTDDTDVLLRIHHVIGELPTYGYRRVWALLRRQAELDGMPAINAKRVYRIMRQNALLLERKPAVPPSKRAHTGRVAVKESNQRWCSDGFEFCCDNGERLRVTFALDCCDREALHWAVTTGGFNSETVQDVMLGAVERRFGNDLPSSPVEWLTDNGSCYRANETRQFARMLGLEPKNTAVRSPESNGIAESFVKTIKRDYISIMPKPDGLTAAKNLAEAFEHYNEWHPHSALGYRSPREYLRQRACNGLSDNRCLEI [P0CF53] |  |  |  |  |  |  |  |  |  |  |  | 5.39 ± 1.7
MDSHTLIQALIYLGSAALIVPIAVRLGLGSVLGYLIAGCIIGPWGLRLVTDAESILHFAEIGVVLMLFIIGLELDPQRLWKLRAAVFGCGALQMVICGGLLGLFCMLLGLRWQVAELIGMTLALSSTAIAMQAMNERNLMVTQMGRSAFAVLLFQDIAAIPLVAMIPLLATSSASTTMGAFALSALKVAGALVLVVLLGRYVTRPALRFVARSGLREVFSAVALFLVFGFGLLLEEVGLSMAMGAFLAGVLLASSEYRHALESDIEPFKGLLLGLFFIGVGMSIDFGTLLENPLRIVILLLGFLIIKIAMLWLIARPLQVPNKQRRWFAVLLGQGSEFAFVVFGAAQMANVLEPEWAKSLTLAVALSMAATPILLVILNRLEQSSTEEAREADEIDEEQPRVIIAGFGRFGQITGRLLLSSGVKMVVLDHDPDHIETLRKFGMKVFYGDATRMDLLESAGAAKAEVLINAIDDPQTNLQLTEMVKEHFPHLQIIARARDVDHYIRLRQAGVEKPERETFEGALKTGRLALESLGLGPYEARERADVFRRFNIQMVEEMAMVENDTKARAAVYKRTSAMLSEIITEDREHLSLIQRHGWQGTEEGKHTGNMADEPETKPSS | 7.26 ± 1 | 6.07 ± 0.42 | 6.12 ± 0.22 | 3.62 ± 0.14 | 6.07 ± 0.45 | 13.1 ± 0.2 | 6.452 ± 0.033 | 11.9 ± 1.1 | 6.64 ± 0.37 | 12.2 ± 1.2 | 6.68 ± 1.4 | 
MDSSFTPIEQMLKFRASRHEDFPYQEILLTRLCMHMQSKLLENRNKMLKAQGINETLFMALITLESQENHSIQPSELSCALGSSRTNATRIADELEKRGWIERRESDNDRRCLHLQLTEKGHEFLREVLPPQHNCLHQLWSALSTTEKDQLEQITRKLLSRLDQMEQDGVVLEAMS [P0ACR9] | 6.705 ± 0.017 | 5.39 ± 0.61 | 4.81 ± 0.11 | 2.7 ± 0.27 | 5.49 ± 0.42 | 11 ± 0.57 | 4.78 ± 0.44 | 7.04 ± 0.45 | 4.86 ± 0.51 | 9.8 ± 0.2 | 5.82 ± 1 | 6.37 ± 0.21
MDTKKIFKHIPWVILGIIGAFCLAVVALRRGEHISALWIVVASVSVYLVAYRYYSLYIAQKVMKLDPTRATPAVINNDGLNYVPTNRYVLFGHHFAAIAGAGPLVGPVLAAQMGYLPGTLWLLAGVVLAGAVQDFMVLFISSRRNGASLGEMIKEEMGPVPGTIALFGCFLIMIIILAVLALIVVKALAESPWGVFTVCSTVPIALFMGIYMRFIRPGRVGEVSVIGIVLLVASIYFGGVIAHDPYWGPALTFKDTTITFALIGYAFVSALLPVWLILAPRDYLATFLKIGVIVGLALGIVVLNPELKMPAMTQYIDGTGPLWKGALFPFLFITIACGAVSGFHALISSGTTPKLLANETDARFIGYGAMLMESFVAIMALVAASIIEPGLYFAMNTPPAGLGITMPNLHEMGGENAPIIMAQLKDVTAHAAATVSSWGFVISPEQILQTAKDIGEPSVLNRAGGAPTLAVGIAHVFHKVLPMADMGFWYHFGILFEALFILTALDAGTRSGRFMLQDLLGNFIPFLKKTDSLVAGIIGTAGCVGLWGYLLYQGVVDPLGGVKSLWPLFGISNQMLAAVALVLGTVVLIKMKRTQYIWVTVVPAVWLLICTTWALGLKLFSTNPQMEGFFYMASQYKEKIANGTDLTAQQIANMNHIVVNNYTNAGLSILFLIVVYSIIFYGFKTWLAVRNSDKRTDKETPYVPIPEGGVKISSHH |  | 4.19 ± 0.26 | 5.39 ± 0.18 | > 4 | 4.24 | 6.86 | 5.42 ± 2.2 | 9.16 ± 0.46 | 5.57 ± 0.48 | 8.62 ± 0.6 | 4.43 | 5.48 ± 0.6
